System: peptide library, one residue held at a place counted from the S/T acceptor
Experiment: relative phosphorylation of the sub-library (ratio to the mean residue at this position); higher = residue favoured
Conditions: human
Outline: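 Spots on streptavidin membranes were phosphorimaged and quantified by densitometry to measure phosphorylation of biotinylated degenerate peptide sub-libraries by purified recombinant kinases, human or orthologue constructs. The reactions ran in 384-well plates for 90 min under kinase-specific conditions, with peptides at 50 μM and 50 μM ATP spiked with γ-32P-ATP. Relative sub-library phosphorylation is the ratio to the mean residue at that position.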

Sequence of PRKAA1, construct: Full length (Q13131 whole entry, looked up): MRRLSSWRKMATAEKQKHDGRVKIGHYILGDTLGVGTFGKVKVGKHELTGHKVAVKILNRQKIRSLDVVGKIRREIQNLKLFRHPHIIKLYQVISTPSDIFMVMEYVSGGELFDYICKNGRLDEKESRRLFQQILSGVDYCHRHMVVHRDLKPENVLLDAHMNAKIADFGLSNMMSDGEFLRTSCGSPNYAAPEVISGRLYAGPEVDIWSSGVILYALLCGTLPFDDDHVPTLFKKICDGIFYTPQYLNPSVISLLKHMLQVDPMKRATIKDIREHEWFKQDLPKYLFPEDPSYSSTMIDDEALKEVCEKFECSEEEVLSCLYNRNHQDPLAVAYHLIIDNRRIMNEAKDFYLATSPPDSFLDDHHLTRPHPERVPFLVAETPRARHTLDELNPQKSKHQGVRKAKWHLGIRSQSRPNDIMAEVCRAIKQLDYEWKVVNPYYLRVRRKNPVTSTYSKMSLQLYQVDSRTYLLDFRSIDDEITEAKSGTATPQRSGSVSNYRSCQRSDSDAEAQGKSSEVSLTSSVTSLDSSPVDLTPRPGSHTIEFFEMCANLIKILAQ

PRKAA1, construct: Full length (from UniProt Q13131)
relative phosphorylation
Conditions	at +1	at +2	at +3	at +4	at -1	at -2	at -3	at -4	at -5
A fixed	0.927	1.41	0.812	0.574	1.05	1.27	0.845	1.21	0.908
D fixed	0.609	0.529	1.53	0.606	0.666	0.413	0.32	0.497	0.381
E fixed	0.781	0.496	0.935	0.516	0.578	0.475	0.453	0.63	0.374
F fixed	1.63	0.899	1.1	1.25	0.643	0.718	0.516	0.682	1.2
G fixed	0.773	0.759	0.902	0.659	1.4	1.05	0.889	1.2	0.857
H fixed	1.18	1.48	1.5	0.757	1.11	1.28	1.28	1.19	0.816
I fixed	0.75	1.38	0.705	2.17	0.379	0.944	0.402	0.659	1.41
K fixed	1	0.723	1.15	0.753	1.93	1.73	2.54	2.1	1.35
L fixed	0.813	1.23	0.803	2.67	0.63	0.541	0.45	0.643	1.63
M fixed	1.49	0.855	0.833	1.89	0.972	0.638	0.609	0.895	1.5
N fixed	0.86	1.08	1.55	0.775	1.12	1.7	0.869	0.947	0.724
P fixed	0.231	1.31	0.39	0.767	1.32	0.783	1.04	1.19	0.944
Q fixed	1.23	0.893	0.996	0.704	1.31	0.92	0.879	0.888	0.847
R fixed	1.24	0.649	1.09	0.691	1.66	1.81	4.12	2.17	1.71
V fixed	0.893	1.48	0.65	0.969	0.589	1.3	0.477	0.728	0.784
W fixed	1.35	0.922	1.19	0.693	0.782	0.705	0.633	0.681	0.731
Y fixed	1.23	0.897	0.866	0.556	0.87	0.716	0.677	0.705	0.836
pThr fixed	0.737	0.513	0.427	0.606	0.418	0.679	0.632	0.724	0.726
pTyr fixed	0.604	0.5	0.601	0.485	0.685	0.568	0.51	0.492	0.778
